For assay [1], the target named is T. congolense fructose-1,6-bisphosphate aldolase, wild type (Trypanosoma congolense). As to the kind of experiment: SEC; analytical SEC of 1 mg TcoALD mixed with Nb474 at Nb474:TcoALD ratios 1:4, 2:4, 3:4, 4:4, 6:4, incubated at least 1 h; Superdex 200 HR 10/30, 50 mM MES, 500 mM NaCl, pH 6.7; peaks analysed by SDS-PAGE.
Assay [2] has the same target. As to the kind of experiment: crystal structure; (Nb474-TcoALD)4 complex, His tags of both retained; 100 mM sodium cacodylate pH 6.5, 200 mM magnesium acetate, 10% PEG 8000, 20°C; 2.57 Å.
Assay [3] has the same target. As to the kind of experiment: SEC; analytical SEC of TcoALD alone; Superdex 200 HR 10/30, 50 mM MES, 500 mM NaCl, pH 6.7; calibrated with the Bio-Rad standard.
Assay [4] concerns the target T. congolense fructose-1,6-bisphosphate aldolase A77E mutant (Trypanosoma congolense). As to the kind of experiment: SPR; SPR sandwich assay: immobilised Nb474 on CM5 saturated with a TcoALD variant, then Nb474 (0.5 nM to 1.0 uM) injected as second analyte; 20 mM HEPES, 150 mM NaCl, 0.005% Tween, 3.4 mM EDTA, pH 7.4; 1:1 Langmuir model for WT and A77E. Background: SPR reads the build-up and loss of mass on a sensor chip optically.

As a reminder, the stoichiometry N is the number of molecules, sites or subunits per partner or assembly. The Kd is a measure of binding affinity in units of concentration. Higher therefore signals a looser complex. A word on the koff: it is the first-order rate constant of dissociation. A word on the kon: it is the rate constant with which the complex forms.

“T. congolense fructose-1,6-bisphosphate aldolase, wild type (enzyme)”: the stoichiometry N in assay [1] was found to be 4; in assay [2] it was 4; in assay [3] it was 2.

B1: Nanobody Nb474, C-terminally His-tagged (VHH)
VHH: QVQLQESGGGLVQPGGSLRLSCAASETALTYYAIGWFRQAPGKEREGVSCISRINSGSGARTDYADSVKGRFTISRDDAKNTVTLQMNSLEPEDTARYYCALDTTDRYDSANGRYYCTISSDTYDYWGQGTQVTVSS
As for B1, in assay [1], the stoichiometry N (Nb474 per TcoALD monomer) worked out at 1. Besides, in assay [4], the equilibrium dissociation constant (Kd) was determined as 0.067 nM, the off-rate (koff) came out at 0.000141 s⁻¹ and the kon is 2.11e+06 M⁻¹ s⁻¹.

(Values after article PMC5617235.)
